{"source": "paper PMC8280819", "about": "(The EMBO Journal, 2021)", "binders": {"B1": {"name": "His‐AosR (Rv1332, actinomycetes oxidative stress regulator) (natural protein)", "chain": "MPPVCGRRCSRTGEIRGYSGSIVRRWKRVETRDGPRFRSSLAPHEAALLKNLAGAMIGLLDDRDSSSPSDELEEITGIKTGHAQRPGDPTLRRLLPDFYRPDDLDDDDPTAVDGSESFNAALRSLHEPEIIDAKRVAAQQLLDTVPDNGGRLELTESDANAWIAAVNDLRLALGVMLEIGPRGPERLPGNHPLAAHFNVYQWLTVLQEYLVLVLMGSR"}}, "biological_target": "His‐SigH (Mycobacterium tuberculosis, UniProt P9WGH8 1-216)", "sequence (P9WGH8 whole entry)": "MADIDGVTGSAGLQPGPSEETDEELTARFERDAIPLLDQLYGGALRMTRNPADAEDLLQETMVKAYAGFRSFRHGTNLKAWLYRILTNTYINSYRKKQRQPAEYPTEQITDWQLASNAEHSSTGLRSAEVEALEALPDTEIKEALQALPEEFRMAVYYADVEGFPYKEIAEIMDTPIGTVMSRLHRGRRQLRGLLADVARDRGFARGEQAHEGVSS", "test": "BLI", "data": [{"binder": "B1", "values": [{"measurement": "response, fold over reducing conditions", "result": 3, "unit": "fold"}]}]}
